Experimental data from patent publication US10428140B2, “Anti-EphA4 antibody” (EISAI R&D MANAGEMENT CO., LTD., priority 2015, dated 2019).

T1: human EphB4 (Homo sapiens, UniProt P54760)
T1 construct: a protein of the extracellular region of each human Eph receptor fused with the SEAP protein and the His tag; made in house; host or cells: Expi293F cells
T1 sequence (P54760 16-539 limits assumed): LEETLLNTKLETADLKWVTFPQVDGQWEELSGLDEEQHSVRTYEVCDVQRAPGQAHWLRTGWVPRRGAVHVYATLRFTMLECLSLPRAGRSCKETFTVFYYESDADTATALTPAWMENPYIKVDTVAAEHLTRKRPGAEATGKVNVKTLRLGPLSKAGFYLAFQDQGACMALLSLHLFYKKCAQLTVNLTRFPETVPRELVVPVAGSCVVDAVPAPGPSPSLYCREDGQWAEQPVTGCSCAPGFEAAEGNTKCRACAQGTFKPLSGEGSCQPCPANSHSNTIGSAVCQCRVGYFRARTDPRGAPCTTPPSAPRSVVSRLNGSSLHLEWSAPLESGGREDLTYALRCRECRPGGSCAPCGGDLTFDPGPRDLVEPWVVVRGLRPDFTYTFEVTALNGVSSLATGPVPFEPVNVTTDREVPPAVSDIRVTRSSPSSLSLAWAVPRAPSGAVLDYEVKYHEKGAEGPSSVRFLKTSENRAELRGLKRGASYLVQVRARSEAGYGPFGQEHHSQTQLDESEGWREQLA

T2: human EphA1 (Homo sapiens, UniProt P21709)
T2 construct: a protein of the extracellular region of each human Eph receptor fused with the SEAP protein and the His tag; made in house; host or cells: Expi293F cells (culture supernatant)
T2 sequence (P21709 26-547 limits assumed): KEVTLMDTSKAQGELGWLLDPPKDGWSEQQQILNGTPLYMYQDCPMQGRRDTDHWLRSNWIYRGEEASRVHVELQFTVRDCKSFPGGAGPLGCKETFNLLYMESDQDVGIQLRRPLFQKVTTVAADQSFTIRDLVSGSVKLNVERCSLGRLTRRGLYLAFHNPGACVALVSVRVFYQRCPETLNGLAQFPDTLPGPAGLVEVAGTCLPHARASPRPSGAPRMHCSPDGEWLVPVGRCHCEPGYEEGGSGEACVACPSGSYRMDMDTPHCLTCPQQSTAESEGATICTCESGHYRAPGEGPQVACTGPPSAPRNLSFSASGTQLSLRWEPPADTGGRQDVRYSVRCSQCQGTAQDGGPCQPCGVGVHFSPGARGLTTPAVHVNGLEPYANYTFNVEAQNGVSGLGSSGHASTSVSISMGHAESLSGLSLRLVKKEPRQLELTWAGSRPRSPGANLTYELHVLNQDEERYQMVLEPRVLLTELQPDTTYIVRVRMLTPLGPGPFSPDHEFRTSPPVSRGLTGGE

T3: human EphB6 (Homo sapiens, UniProt O15197)
T3 construct: a protein of the extracellular region of each human Eph receptor fused with the SEAP protein and the His tag; made in house; host or cells: Expi293F cells
T3 sequence (O15197 32-594 limits assumed): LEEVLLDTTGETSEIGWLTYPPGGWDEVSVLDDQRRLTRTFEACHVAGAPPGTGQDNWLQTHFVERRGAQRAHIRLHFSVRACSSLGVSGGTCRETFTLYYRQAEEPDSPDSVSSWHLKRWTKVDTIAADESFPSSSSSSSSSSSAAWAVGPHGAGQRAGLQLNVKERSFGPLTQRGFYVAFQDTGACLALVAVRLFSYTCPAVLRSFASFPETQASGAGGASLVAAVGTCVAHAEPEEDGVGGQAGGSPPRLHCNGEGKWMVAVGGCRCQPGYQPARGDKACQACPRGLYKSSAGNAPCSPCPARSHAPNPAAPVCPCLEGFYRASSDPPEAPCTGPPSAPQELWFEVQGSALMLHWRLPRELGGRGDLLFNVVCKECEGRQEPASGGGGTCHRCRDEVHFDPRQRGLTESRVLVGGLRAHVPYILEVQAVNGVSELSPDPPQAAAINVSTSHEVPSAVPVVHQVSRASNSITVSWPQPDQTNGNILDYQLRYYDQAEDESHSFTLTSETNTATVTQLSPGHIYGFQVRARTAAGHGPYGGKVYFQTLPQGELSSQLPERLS


Key:
Test in all cases: Selectivity ELISA of humanized antibodies for human Eph receptor
Format in all cases: binding
Conditions in all cases: coated protein 1 nM
[1] = target: T1, human EphB4
Summary of the method: (§1)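 Extracellular domains of human Eph receptors fused to SEAP-His were expressed in Expi293F cells for 5 days and captured from supernatant (1 nM final) on anti-His-coated plates. Humanized anti-EphA4 antibodies were incubated 1 h at room temperature, then HRP anti-IgG secondary, TMB substrate, and absorbance at 450 nm.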

[2] = target: T2, human EphA1
Summary of the method: as §1

[3] = target: T3, human EphB6
Summary of the method: as §1

Row | Molecule | hEphB4-SEAP-: absorbance at 450 nm, percentage with respect to hEphA4-SEAP-His as 100% [1] | hEphA1-SEAP-: absorbance at 450 nm, percentage with respect to hEphA4-SEAP-His as 100% [2] | hEphB6-SEAP-: absorbance at 450 nm, percentage with respect to hEphA4-SEAP-His as 100% [3]
1 | 91 (antibody, V domains shown, constant regions without entry; synthetic humanized antibody light chain variable region sequence; synthetic humanized antibody heavy chain variable region sequence) VL: DIQMTQSPSSLSASVGDRVTITCRASENIYRNLAWYQQKPGKAPQLLLYAATNLADGVPSRFSGSGSGTDYTLTISSLQPEDFATYYCQHFWGTPWTFGQGTKVEIK VH: QVQLVQSGSELKKPGASVKVSCKASGYTFTDYSMHWVRQAPGQGLKWMGWINTETGEPTYADDFKGRFVFSLDTSVSTAYLQISSLKAEDTAVYYCARIPLYYYGSRYWYFDVWGQGTTVTVSS | 6.2% | 5.8% | 6.3%
2 | 93 (antibody, V domains shown, constant regions without entry; synthetic humanized antibody light chain variable region sequence; synthetic humanized antibody heavy chain variable region sequence) VL: EIVMTQSPATLSVSPGERATLSCRASENIYRNLAWYQQKPGQSPRLLIYAATNLADGIPARFSGSGSGTEYTLTISSLQSEDFAVYYCQHFWGTPWTFGQGTKVEIK VH: QVQLVQSGSELKKPGASVKVSCKASGYTFTDYSMHWVRQAPGQGLEWMGWINTETGEPTYAQGFTGRFVFSLDTSVSTAYLQISSLKAEDTAVYYCARIPLYYYGSRYWYFDVWGQGTTVTVSS | 5.0% | 5.0% | 4.9%
3 | 94 (antibody, V domains shown, constant regions without entry; synthetic humanized antibody light chain variable region sequence; synthetic humanized antibody heavy chain variable region sequence) VL: EIVMTQSPATLSVSPGERATLSCRASENIYRNLAWYQQKPGQSPRLLIYAATNLADGIPARFSGSGSGTEYTLTISSLQSEDFAVYYCQHFWGTPWTFGQGTKVEIK VH: QVQLVQSGSELKKPGASVKVSCKASGYTFTDYSMHWVRQAPGQGLKWMGWINTETGEPTYAQGFTGRFVFSLDTSVSTAYLQISSLKAEDTAVYYCARIPLYYYGSRYWYFDVWGQGTTVTVSS | 6.5% | 6.5% | 6.4%
4 | 73 (antibody, V domains shown, synthetic humanized antibody heavy chain variable region sequence; synthetic humanized antibody light chain variable region sequence) VH: QIQLVQSGSELKKPGASVKVSCKASGYTFTDYSMHWVRQAPGQGLKWMGWINTETGEPTYADDFKGRFVFSLDTSVSTAYLQISSLKAEDTAVYYCARIPLYYYGSRYWYFDVWGQGTTVTVSS VL: EIVMTQSPATLSVSPGERATLSCRASENIYRNLAWYQQKPGQSPRLLIYAATNLADGIPARFSGSGSGTEYTLTISSLQSEDFAVYYCQHFWGTPWTFGQGTKVEIK | 5.7% | 6.0% | 5.6%
5 | 96 (antibody, V domains shown, constant regions without entry; synthetic humanized antibody light chain variable region sequence; synthetic humanized antibody heavy chain variable region sequence) VL: EIVMTQSPATLSVSPGERATLSCRASENIYRNLAWYQQKPGQSPRLLIYAATNLADGIPARFSGSGSGTEYTLTISSLQSEDFAVYYCQHFWGTPWTFGQGTKVEIK VH: QVQLVQSGSELKKPGASVKVSCKASGYTFTDYSMHWVRQAPGQGLKWMGWINTETGEPTYADDFKGRFVFSLDTSVSTAYLQISSLKAEDTAVYYCARIPLYYYGSRYWYFDVWGQGTTVTVSS | 5.5% | 5.6% | 5.5%
6 | 71 (antibody, V domains shown, synthetic humanized antibody heavy chain variable region sequence; synthetic humanized antibody light chain variable region sequence) VH: QIQLVQSGSELKKPGASVKVSCKASGYTFTDYSMHWVRQAPGQGLKWMGWINTETGEPTYAQGFTGRFVFSLDTSVSTAYLQISSLKAEDTAVYYCARIPLYYYGSRYWYFDVWGQGTTVTVSS VL: EIVMTQSPATLSVSPGERATLSCRASENIYRNLAWYQQKPGQSPRLLIYAATNLADGIPARFSGSGSGTEYTLTISSLQSEDFAVYYCQHFWGTPWTFGQGTKVEIK | 5.5% | 5.6% | 5.3%
7 | 92 (antibody, V domains shown, constant regions without entry; synthetic humanized antibody light chain variable region sequence; synthetic humanized antibody heavy chain variable region sequence) VL: DIQMTQSPSSLSASVGDRVTITCRASENIYRNLAWYQQKPGKAPQLLLYAATNLADGVPSRFSGSGSGTDYTLTISSLQPEDFATYYCQHFWGTPWTFGQGTKVEIK VH: QIQLVQSGSELKKPGASVKVSCKASGYTFTDYSMHWVRQAPGQGLKWMGWINTETGEPTYADDFKGRFVFSLDTSVSTAYLQISSLKAEDTAVYYCARIPLYYYGSRYWYFDVWGQGTTVTVSS | 6.6% | 7.0% | 6.5%
8 | 95 (antibody, V domains shown, constant regions without entry; synthetic humanized antibody light chain variable region sequence; synthetic humanized antibody heavy chain variable region sequence) VL: EIVMTQSPATLSVSPGERATLSCRASENIYRNLAWYQQKPGQSPRLLIYAATNLADGIPARFSGSGSGTEYTLTISSLQSEDFAVYYCQHFWGTPWTFGQGTKVEIK VH: QVQLVQSGSELKKPGASVKVSCKASGYTFTDYSMHWVRQAPGQGLEWMGWINTETGEPTYADDFKGRFVFSLDTSVSTAYLQISSLKAEDTAVYYCARIPLYYYGSRYWYFDVWGQGTTVTVSS | 4.6% | 4.5% | 4.7%
